# According to patent US20050036988A1 (published 2005):
# Biological target: the molecule itself
# Assay: western immunoblotting of rat liver after chronic CCl4 injury
protein,measurement,value
"rat stellate cell activation-associated protein (STAP) (enzyme, UniProt Q921A4 1-190, looked up, Detected in rat liver tissue lysates and sections, either endogenous or expressed from rAAV/rSTAP; Immunoblots show monomeric and dimeric forms; also called rSTAP; rat STAP) MEKVPGDMEIERRERNEELSEAERKAVQATWARLYANCEDVGVAILVRFFVNFPSAKQYFSQFKHMEDPLEMERSPQLRKHACRVMGALNTVVENLHDPDKVSSVLALVGKAHALKHKVEPMYFKILSGVILDVIAEEFANDFPVETQKAWTKLRGLIYSHVTAAYKEVGWVQQVPNTTTLPATLPSSGP",binding result,binds
